Target: T1, purified recombinant R2 protein, P11157
T1 chain: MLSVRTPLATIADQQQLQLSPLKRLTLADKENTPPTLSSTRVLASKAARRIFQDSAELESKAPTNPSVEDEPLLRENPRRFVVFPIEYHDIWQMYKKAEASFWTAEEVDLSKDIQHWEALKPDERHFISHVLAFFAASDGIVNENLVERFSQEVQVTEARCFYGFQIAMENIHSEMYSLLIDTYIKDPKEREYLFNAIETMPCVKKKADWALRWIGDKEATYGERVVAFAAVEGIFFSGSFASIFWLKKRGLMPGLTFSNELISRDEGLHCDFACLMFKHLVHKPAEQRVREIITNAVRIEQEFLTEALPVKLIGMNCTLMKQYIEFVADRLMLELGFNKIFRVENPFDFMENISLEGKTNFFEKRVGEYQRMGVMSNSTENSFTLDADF

B1: human Myc epitope-tagged mouse ribonucleotide reductase R1 protein (protein)
chain: EQKLISEEDLMHVIKRDGRQERVMFDKITSRIQKLCYGLNMDFVDPAQITMKVIQGLYSGVTTVELDTLAAETAATLTTKHPDYAILAARIAVSNLHKETKKVFSDVMEDLYNYINPHNGRHSPMVASSTLDIVMANKDRLNSAIIYDRDFSYNYFGFKTLERSYLLKINGKVAERPQHMLMRVSVGIHKEDIDAAIETYNLLSEKWFTHASPTLFNAGTNRPQLSSCFLLSMKDDSIEGIYDTLKQCALISKSAGGIGVAVSCIRATGSYIAGTNGNSNGLVPMLRVYNNTARYVDQGGNKRPGAFAIYLEPWHLDIFEFLDLKKNTGKEEQRARDLFFALWIPDLFMKRVETNQDWSLMCPNECPGLDEVWGEEFEKLYESYEKQGRVRKVVKAQQLWYAIIESQTETGTPYMLYKDSCNRKSNQQNLGTIKCSNLCTEIVEYTSKDEVAVCNLASLALNMYVTPEHTYDFEKLAEVTKVIVRNLNKIIDINYYPIPEAHLSNKRHRPIGIGVQGLADAFILMRYPFESPEAQLLNKQIFETIYYGALEASCELAKEYGPYETYEGSPVSKGILQYDMWNVAPTDLWDWKPLKEKIAKYGIRNSLLIAPMPTASTAQILGNNESIEPYTSNIYTRRVLSGEFQIVNPHLLKDLTERGLWNEEMKNQIIACNGSIQSIPEIPDDLKQLYKTVWEISQKTVLKMAAERGAFIDQSQSLNIHIAEPNYGKLTSMHFYGWKQGLKTGMYYLRTRPAANPIQFTLNKEKLKDKEKALKEEEEKERNTAAMVCSLENREECLMCGS
ribonucleotide reductase activity of the 9E10-immunoprecipitated R1 combined with purified recombinant R2: enzyme activity of 15.4±2.0 pmoles/mg/hr was detected when C1/mR1 cells (Table 1) were used as a source of recombinant R1

Reference: patent US20030087866
